# Laboratory results from patent US20230025129A1 (KYMAB, published 2023).
# Changes are numbered by the printed parent chain. In names and notes the source's numbering stands.
# T1: human matriptase-2 ECD protein his tag (human, UniProt Q8IU80 78-811)
# T1 sequence: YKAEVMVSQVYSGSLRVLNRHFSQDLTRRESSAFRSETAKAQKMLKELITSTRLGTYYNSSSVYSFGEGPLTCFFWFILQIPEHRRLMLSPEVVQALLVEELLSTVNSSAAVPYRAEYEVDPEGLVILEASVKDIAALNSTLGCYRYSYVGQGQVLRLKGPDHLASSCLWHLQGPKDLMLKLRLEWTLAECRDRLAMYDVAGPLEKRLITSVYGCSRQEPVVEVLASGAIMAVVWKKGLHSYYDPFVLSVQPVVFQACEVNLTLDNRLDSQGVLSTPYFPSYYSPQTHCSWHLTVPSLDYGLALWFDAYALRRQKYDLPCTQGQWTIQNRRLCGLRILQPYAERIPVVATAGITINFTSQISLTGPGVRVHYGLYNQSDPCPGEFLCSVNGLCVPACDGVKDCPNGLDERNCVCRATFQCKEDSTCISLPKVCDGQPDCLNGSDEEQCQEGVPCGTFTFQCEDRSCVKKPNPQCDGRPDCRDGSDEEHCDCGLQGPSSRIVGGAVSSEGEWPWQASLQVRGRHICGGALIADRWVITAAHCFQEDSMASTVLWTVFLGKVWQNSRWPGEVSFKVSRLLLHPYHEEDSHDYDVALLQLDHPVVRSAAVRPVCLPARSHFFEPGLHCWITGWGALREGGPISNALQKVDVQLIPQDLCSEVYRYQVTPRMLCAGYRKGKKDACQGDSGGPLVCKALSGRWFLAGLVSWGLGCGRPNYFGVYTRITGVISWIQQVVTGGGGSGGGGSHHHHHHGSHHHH
# T2: mouse matriptase-2 ECD protein his tag (mouse, UniProt Q9DBI0 80-811)
# T2 sequence: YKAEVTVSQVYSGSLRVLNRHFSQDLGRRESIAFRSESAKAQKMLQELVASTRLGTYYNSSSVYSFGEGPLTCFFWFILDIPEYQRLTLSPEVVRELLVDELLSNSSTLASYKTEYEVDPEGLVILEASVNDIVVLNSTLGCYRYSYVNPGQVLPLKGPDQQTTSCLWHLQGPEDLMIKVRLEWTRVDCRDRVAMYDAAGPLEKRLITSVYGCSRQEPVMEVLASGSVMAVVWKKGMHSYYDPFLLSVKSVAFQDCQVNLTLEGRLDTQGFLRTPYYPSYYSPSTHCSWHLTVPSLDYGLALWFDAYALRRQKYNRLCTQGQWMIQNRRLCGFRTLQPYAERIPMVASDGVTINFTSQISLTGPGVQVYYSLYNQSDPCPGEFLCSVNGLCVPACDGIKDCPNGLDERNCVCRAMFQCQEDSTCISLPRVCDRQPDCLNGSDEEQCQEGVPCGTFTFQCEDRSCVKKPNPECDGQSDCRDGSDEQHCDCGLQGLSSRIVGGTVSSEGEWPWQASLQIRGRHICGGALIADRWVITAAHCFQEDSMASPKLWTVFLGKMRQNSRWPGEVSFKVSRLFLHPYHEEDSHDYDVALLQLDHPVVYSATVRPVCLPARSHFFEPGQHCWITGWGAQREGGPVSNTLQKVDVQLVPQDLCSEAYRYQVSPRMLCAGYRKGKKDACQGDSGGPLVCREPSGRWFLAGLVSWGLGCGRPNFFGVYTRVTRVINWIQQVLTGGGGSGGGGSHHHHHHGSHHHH
# T3: human MTP-2 expressed on HEK293 cells (human, UniProt Q8IU80 1-811)
# T3 sequence: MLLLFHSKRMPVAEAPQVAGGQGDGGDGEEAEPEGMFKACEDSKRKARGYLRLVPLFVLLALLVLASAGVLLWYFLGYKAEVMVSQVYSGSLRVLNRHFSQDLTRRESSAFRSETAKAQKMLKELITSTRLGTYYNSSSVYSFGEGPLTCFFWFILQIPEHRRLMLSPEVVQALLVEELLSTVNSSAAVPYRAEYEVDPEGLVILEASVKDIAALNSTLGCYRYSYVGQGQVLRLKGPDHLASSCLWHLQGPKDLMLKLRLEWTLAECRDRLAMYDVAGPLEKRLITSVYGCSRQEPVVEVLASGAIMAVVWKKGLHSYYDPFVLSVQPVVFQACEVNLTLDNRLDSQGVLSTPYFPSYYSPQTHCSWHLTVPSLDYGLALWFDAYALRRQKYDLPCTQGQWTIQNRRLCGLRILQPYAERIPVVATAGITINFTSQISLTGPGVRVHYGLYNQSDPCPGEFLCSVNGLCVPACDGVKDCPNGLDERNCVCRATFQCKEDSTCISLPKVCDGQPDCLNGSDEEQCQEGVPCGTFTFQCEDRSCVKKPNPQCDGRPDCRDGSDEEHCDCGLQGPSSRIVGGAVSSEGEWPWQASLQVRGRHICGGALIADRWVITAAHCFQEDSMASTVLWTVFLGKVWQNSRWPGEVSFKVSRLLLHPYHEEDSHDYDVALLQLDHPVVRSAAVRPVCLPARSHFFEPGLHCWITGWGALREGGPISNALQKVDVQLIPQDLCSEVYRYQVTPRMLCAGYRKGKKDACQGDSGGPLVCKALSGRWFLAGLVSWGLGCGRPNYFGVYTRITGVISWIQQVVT
# B1: NORI-008 (antibody, human IgG4 S228P, kappa, V domains shown)
# VH: QVQLQESGPGLVKPSETLSLTCSVSGGSVSSGRYYWTWIRQPPGKGLEWIGYISNSGNTNYNPSLKSRVTISLDTSKKQFSLSLSAVTAADTAVYYCARGFIYDYWFDPWGQGSLVTVSS
# VL: DSQMTQSPSSLSASVGDRVTITCQASQDIDNYLNWYQQRPGKAPKLLIYDASKLETGVPSRFSGSGSGTDFTFTISSLQPEDFATYYCQQYGNLPITFGQGTRLDIKR
# notes: human IgG4PE, kappa, in the in vitro assays; a mouse IgG1 format was used in one in vivo study only; also called NORI-008 hulgG4PE; NORI-008 IgG
# B2: NORI-011 (antibody, human IgG4 S228P, lambda)
# heavy: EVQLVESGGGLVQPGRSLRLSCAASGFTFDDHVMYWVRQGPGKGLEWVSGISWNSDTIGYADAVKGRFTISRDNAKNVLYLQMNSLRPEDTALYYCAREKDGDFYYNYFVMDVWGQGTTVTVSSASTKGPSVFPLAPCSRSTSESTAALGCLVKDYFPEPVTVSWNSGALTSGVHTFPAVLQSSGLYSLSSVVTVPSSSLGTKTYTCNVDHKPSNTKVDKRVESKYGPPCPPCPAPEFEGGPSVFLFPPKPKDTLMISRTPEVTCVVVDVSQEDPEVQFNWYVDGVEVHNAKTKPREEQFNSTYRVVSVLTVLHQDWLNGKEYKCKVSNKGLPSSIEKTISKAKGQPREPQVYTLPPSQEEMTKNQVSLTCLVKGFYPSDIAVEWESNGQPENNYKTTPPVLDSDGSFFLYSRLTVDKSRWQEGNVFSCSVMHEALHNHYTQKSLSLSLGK
# light: QSALTQPPSASGSPGQSVTISCTGTSSDVGFYNFVSWYQQHPDKAPKVMIYEVSKRPSGVPDRFSGSKSGNTASLTVSGLQAEDEADYYCSSYAGSNKVVFGGGTKLTVLGQPKAAPSVTLFPPSSEELQANKATLVCLISDFYPGAVTVAWKADSSPVKAGVETTTPSKQSNNKYAASSYLSLTPEQWKSHRSYSCQVTHEGSTVEKTVAPTECS
# notes: human IgG4PE, lambda; NORI-010 with a P124S mutation in the VH domain
# B3: NORI-006 (antibody, human IgG4 S228P, kappa, V domains shown)
# VH: EVQLVESGGGLIKPGRSLRLSCTGSGFTFGDFGLSWFRQAPGKGLEWISFIRSKPYGGTTDYAASVKGRFTISRDDSKNVAYLQMNSLKTEDTAVYYCARNEILTGYYIFDYWGQGTLVTVSS
# VL: DIQMTQSPSSLSASLGDRVTITCQASQDINNYLNWYQVQPGKAPKLLIFDASILETGVPSRFSGSGSGTDFSFTISSLQPEDIATYYCQQYDNLPLTFGGGTKVDFKR
# notes: human IgG4PE, kappa
# B4: NORI-003 (antibody, human IgG4 S228P, kappa, V domains shown)
# VH: EVQLVESGGGLVKPGRSLRLSCTGSGFTFGDFGMSWFRQAPGKGLEWVGFIRSKPYGGTTDYAPSVRGRFSISRDDSKGIVYLQMNSLRTEDTAVYYCSRNEILTGYYIFDYWGQGTLVTVSS
# VL: B3 VL with Q27H, N30T, N34I, V38Q, Q39K, K45R, S72T, I83F, D92Y, F106I
# notes: human IgG4PE, kappa; NORI-002 with the free cysteine of the VH domain mutated (printed as 'C49C')
# B5: NORI-013 (antibody, human IgG4 S228P, lambda, V domains shown)
# VH: EVQLVESGGGLIQAGRSLRLSCAASGFTFDEHVIYWVRQIPGKGLEWISSISWKSDIIAYADSVKGRFTISRDNAKNALYLQMNSLRAEDTALYYCAREKDGDFYYYYFAMDVWGQGTTVTVSS
# VL: QSALTQPPSASGSPGQSVTLSCTGTSSDVGYYNYVSWYLQHPGKAPKLMIYEVSKRPSGVPDRFSGSKSANTASLTVSGLQAEDEADYYCSSYAGSNKVVFGGGTKVTVLG
# notes: human IgG4PE, lambda
# B6: NORI-014 (antibody, human IgG4 S228P, lambda, V domains shown)
# VH: B5 VH with I34M, S52T
# VL: B5 VL
# notes: human IgG4PE, lambda
# Target: T1, human matriptase-2 ECD protein his tag
# Assay: cell-based or functional assay
row,Binder,Inhibition enzymatic activity human MTP2 protein (IC50) [nM]
1,B1,0.446
2,B2,11.4
3,B3,1.26
4,B4,1.6

# Target: T2, mouse matriptase-2 ECD protein his tag
# Assay: cell-based or functional assay
row,Binder,Inhibition enzymatic activity mouse MTP2 protein (IC50) [nM]
1,B1,0.757
2,B2,9.88
3,B3,27.6
4,B4,19

# Target: T2, mouse matriptase-2 ECD protein his tag
# Assay: SPR (Biacore 8K), huIgG4PE captured on anti-human Fc, MTP-2 ECD as analyte, 1:1 fit
# Method: Off-rate screening was performed by surface plasmon resonance (SPR), using a Biacore 8K system (GE Healthcare). Anti-human Fc mix (˜1000 RU) were immobilised in both active and reference channels in HBS-P+ buffer (GE BR100671) pH 7.4. Anti-MTP-2 hulgG4PE antibodies were then captured for 60 sec at 10 μl/min at 1 μg/ml concentration (approximatively 35 and 50 RU were captured) only on the active channel. MTP-2 ECD protein analytes were then injected (at 100, 25, 6.25, 1.56 and 0 nM concentrations) for 120 sec (association time) at 30 μl/min and dissociation monitored for 600 sec. Multiple cycle kinetics mode was used with all 8 channels being used. Reference and background were subtracted from the sensorgrams for each antibody and data was fitted using a 1:1 interaction model in the Biacore evaluation software. Rmax, ka, kd globally fitted, RI=0.
Binder,Binding Late top conc,Kd [nM],Stoichiometry,koff [s⁻¹],kon [M⁻¹ s⁻¹]
B1,39.2,0.129,0.86,3.05e-05,237000
B5,7.5,,1.47,,10500
B6,5.4,,0.93,,12100

# Target: T3, human MTP-2 expressed on HEK293 cells
# Assay: cell-based or functional assay
row,Binder,Inhibition enzymatic activity human MTP2 on cells (IC50) [nM]
1,B1,0.0839
2,B5,0.619
3,B6,0.532

# Target: T1, human matriptase-2 ECD protein his tag
# Assay: cell-based or functional assay
# Remark: another data set of the same source
row,Binder,Inhibition enzymatic activity human MTP2 protein (IC50) [nM]
1,B1,8.28
2,B5,5.63
3,B6,11.8
4,B3,8.8

# Target: T2, mouse matriptase-2 ECD protein his tag
# Assay: cell-based or functional assay
# Remark: another data set of the same source
row,Binder,Inhibition enzymatic activity mouse MTP2 protein (IC50) [nM]
1,B1,1.5
2,B5,3.59
3,B6,8.5
4,B3,22.9
